Data: PMC7532634

Columns and labels:
Experiment in all cases: EMSA
[1] = tested on: MsrR:C62S (Corynebacterium glutamicum); conditions: no H2O2; unit inferred, nM from context; apparent KD; 10 mM Tris-HCl pH 7.4 (Fig 4 legend says pH 8.0 for the H2O2/DTT test), 5 mM MgCl2, 50 mM KCl, 5% glycerol, 0.1% NP40, 1 ug poly(dI:dC), 40 ng DNA in 20 ul …
[2] = tested on: MsrR (Corynebacterium glutamicum); conditions: no oxidant; apparent KD; 10 mM Tris-HCl pH 7.4 (Fig 4 legend says pH 8.0 for the H2O2/DTT test), 5 mM MgCl2, 50 mM KCl, 5% glycerol, 0.1% NP40, 1 ug poly(dI:dC), 40 ng DNA in 20 ul …
[3] = tested on: T1, MsrR:C62S C62S (Corynebacterium glutamicum), ORF:1371e9c5; conditions: 10 mM Tris-HCl pH 7.4 (Fig 4 legend says pH 8.0 for the H2O2/DTT test), 5 mM MgCl2, 50 mM KCl, 5% glycerol, 0.1% NP40, 1 ug poly(dI:dC), 40 ng DNA in 20 ul …
T1 sequence: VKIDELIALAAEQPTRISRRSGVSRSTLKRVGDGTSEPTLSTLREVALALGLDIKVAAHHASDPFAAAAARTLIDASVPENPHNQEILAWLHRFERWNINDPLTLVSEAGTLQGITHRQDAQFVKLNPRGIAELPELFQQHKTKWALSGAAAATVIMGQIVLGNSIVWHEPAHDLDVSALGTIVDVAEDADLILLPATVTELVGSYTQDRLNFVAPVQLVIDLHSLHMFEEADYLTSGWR

Substance	Kd [1]	Kd [2]	Kd [3]	binding [3]
PmsrR	23.1 nM	0.017 µM		
GTGGACACGGGGTGTCTCCTAAAGATGGGGAGCAAAAACCCTCAAACTGCTGCTAAAAATACAGGATTGGCGCCCGTGACGCTACTGAAAAGGTGGAGGGGCGCGTCGAAAAGCGTTGGCCGGTGCCTGAGCGAAAAACCGTGATGATTAGCATGGTTTGTT (double strand) [PmsrR]			0.0231 µM	binds
